Laboratory results from patent US8008547B2, “Glyphosate-N-acetyltransferase (GAT) genes” (E.I. duPont de Nemours, priority 2000, dated 2011).

How the values were obtained:
soybean plants = assay: Greenhouse glyphosate spray of T0 soybean plants expressing GAT transgenes (discoloration score); assay type: in vivo; conditions: for number of events @ 3-6 / number of events @ 7-8: count in parentheses
Method: Soybean plants expressing GAT variant transgenes were produced using the method of particle gun bombardment (see Klein et al. (1987) Nature 327:70-73) using a DuPont Biolistic PDS1000/He instrument. The selection agent used during the transformation process was hygromycin. Either the hygromycin selectable marker gene remained in the transgenic events or the hygromycin gene was excised by methods known in the art. DNA fragments were prepared with a synthetic constitutive promoter, a GAT variant and PinII terminator. The selectable marker gene, comprising the 35S CaMV promoter, HPT gene and NOS terminator, was cobombarded with the GAT gene variant as described above. Bombarded soybean embryogenic suspension tissue was cultured for one week in the absence of selection agent. Embryogenic suspension tissue was placed in liquid selection medium for 6 weeks. Putative transgenic suspension tissue was sampled for PCR analysis to determine the presence of the GAT gene. Putative transgenic suspension culture tissue was maintained in selection medium for 3 weeks to obtain enough tissue for plant regeneration. Suspension tissue was matured for 4 weeks using standard procedures; matured somatic embryos were desiccated for 4-7 days and then placed on germination induction medium for 2-4 weeks. Germinated plantlets were transferred to soil in cell pack trays for 3 weeks for acclimatization. Plantlets were potted to 10-inch pots in the greenhouse for evaluation of glyphosate resistance.
To determine the level of glyphosate resistance of transgenic soybeans expressing the GAT variant transgenes, T0 plants were sprayed with glyphosate (Roundup ULTRA MAX™) in the greenhouse. Plant resistance levels were evaluated by […] • 7=minor leaf/stem discoloration • 5=worse leaf/stem discoloration • 3=severely discolored plant or dying plant • 1=dead plant
One to four plants were sent to the greenhouse from each independent transgenic event. An additional 1-2 plants per event were grown in controlled environment growth chambers for seed production and were not sprayed with glyphosate. The greenhouse plants were sprayed at 1×, 2× or 4× glyphosate (1× glyphosate=26 ounces/acre of RoundUp ULTRA MAX™) 3-4 weeks after transfer to soil. The T0 plant discoloration scores with 2× and 4× spray rates are shown in Table 10 and Table 11, respectively.

[1] = Standard protocol for determination of kcat and KM (continuous spectrophotometric assay, Acetyl CoA hydrolysis at 235 nm); assay type: biochemical; conditions: purified protein, about 23° C., 0.2 mM acetyl CoA; for Kcat: 20 mM HEPES pH 6.8, 10% ethylene glycol; for Km: pH 6.8, glyphosate 0.125 to 10 mM
Summary of the method: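 KM from initial rates over 0.125–10 mM glyphosate, fitted by Lineweaver-Burke transformation of Michaelis-Menten; kcat/KM computed as kcat divided by KM. Continuous spectrophotometric read of acetyl-CoA hydrolysis at 235 nm.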

| Molecule | Kcat [1] | Km [1] | also measured |
| --- | --- | --- | --- |
| SEQ ID NO: 824: GAT gene variant expressed in transgenic soybean (nucleic acid, Synthetic DNA Sequence; CDS (1)...(441); 18-28D9c, GAT gene variant expressed in transgenic soybean) DNA: ATGATAGAGGTGAAACCGATTAACGCAGAGGATACCTATGAACTAAGGCATAGAATACTCAGACCAAACCAGCCGATAGAAGCGTGTATGTTTGAAAGCGATTTACTTCGTGGTGCATTTCACTTAGGCGGCTTTTACAGGGGCAAACTGATTTCCATAGCTTCATTCCACCAGGCCGAGCACTCGGAACTCCAAGGCCAGAAACAGTACCAGCTCCGAGGTATGGCTACCTTGGAAGGTTATCGTGAGCAGAAAGCGGGATCAACTCTAGTTAAACACGCTGAAGAAATCCTTCGTAAGAGGGGGGCGGACATGCTTTGGTGTAATGCGAGGACATCCGCCTCAGGCTACTACAAAAAGTTAGGCTTCAGCGAGCAGGGAGAGATATTTGACACGCCGCCAGTAGGACCTCACATCCTGATGTATAAAAGGATCACATAA | – | – | % EVENTS @ 7-8 (soybean plants; 10 days after 2X glyphosate (1× = 26 ounces/acre), 7=minor leaf/stem discoloration): 8%; % EVENTS @ 3-6 (soybean plants; 10 days after 2X glyphosate, 5=worse discoloration, 3=severely discolored or dying): 74%; number of events @ 3-6 (soybean plants; 10 days after 2X glyphosate): 23; number of events @ 7-8 (soybean plants; 10 days after 2X glyphosate): 3; % EVENTS @ 3-6 (soybean plants; 10 days after 4X glyphosate): 43%; % EVENTS @ 7-8 (soybean plants; 10 days after 4X glyphosate): 8%; number of events @ 3-6 (soybean plants; 10 days after 4X glyphosate): 10; number of events @ 7-8 (soybean plants; 10 days after 4X glyphosate): 2 |
| SEQ ID NO: 344: GAT polypeptide (protein, 18D6, GAT polypeptide) MIEVKPINAEDTYEIRHRILRPNQPLEACKYETDLLGGTFHLGGYYRGKLISIASFHKAEHSELEGQKQYQLRGMATLEGYREQKAGSTLIRHAEELLRKKGADLLWCNARTSASGYYEKLGFSEQGEVYDIPPIGPHILMYKKLA | 0.16 s⁻¹ | 1200 µM | – |
| SEQ ID NO: 356: GAT polypeptide (protein, 30G8, GAT polypeptide) MIEVKPINAEDTYEIRHRILRPNQPLEACMFETDLLGGAFHLGGYYQGKLISIASFHQAEHSELEGQKQYQLRGMATLEGYREQKAGSTLIRHAEELLRKKGADLLWCNARTSVSGYYKKLGFSEQGEVYDIPPIGPHILMYKKLT | 0.17 s⁻¹ | 1600 µM | – |
| SEQ ID NO: 355: GAT polypeptide (protein, 2H3, GAT polypeptide) MIEVKPINAEDTYEIRHRILRPNQPLEACKYETDLLGGTFHLGGYYQGKLISTASFHQAGHSELEGQKQYQLRGMATLEGYRERKAGSTLIRHAEELLRKKGADLLWCNARISASGYYKKLGFSEQGGVYDIPPIGPHILMYKKLT | 0.268 s⁻¹ | 900 µM | – |
| SEQ ID NO: 349: GAT polypeptide (protein, 21E11, GAT polypeptide) MIEVKPINAEDTYEIRHRILRPNQPLEACKYETDLLGGAFHLGGYYQGKLISIASFHQAEHSELEGQKQYQLRGMATLEGYREQKAGSTLIRHAEELLRKKGADLLWCNARTSVSGYYKKLGFSEQGEVYDIPPIGPHILMYKKLT | 0.0183 s⁻¹ | 700 µM | – |
| SEQ ID NO: 348: GAT polypeptide (protein, 20F2, GAT polypeptide) MIEVKPINAEDTYEIRHRILRPNQPLEACMYETDLLGGTFHLGGYYRGKLISIASFHQAEHSELEGQKQYQLRGMATLEGYREQKAGSTLIRHAEELLRKKGADLLWCNARTSVSGYYEKLGFSEQGEVYDIPPIGPHILMYKKLT | 0.065 s⁻¹ | 1900 µM | – |
| SEQ ID NO: 345: GAT polypeptide (protein, 19C6, GAT polypeptide) MIEVKPINAEDTYEIRHRILRPNQPLEACKYETDLLGGTFHLGGYYRGKLICIASFHQAEHSELEGQKQYQLRGMATLEGYREQKAGSTLIRHAEELLRKKGADLLWCNARTSVRGYYEKLGFSEQGGVYDIPPIGPHILMYKKLA | 0.0367 s⁻¹ | 1100 µM | – |
| SEQ ID NO: 346: GAT polypeptide (protein, 19D5, GAT polypeptide) MIEVKPINAEDTYEIRHCILRPNQPLEACMYETDLLGGTFHLGGYYQGKLISIASFHKAEHSELEGQKQYQLRGMATLEGYREQKAGSTLIRHAEELLRKKGADLLWCNARTSVSGYYKKLGFSEQGEVYDIPPIGPHILMYKKLT | 0.0367 s⁻¹ | 1700 µM | – |
| SEQ ID NO: 266: GAT polypeptide (protein, 14_2C1, GAT polypeptide) MIEVKPINAEDTYEIRHRILRPNQPLEACKYETDLLRGAFHLGGYYRGKLVSIASFHQAEHPELEGQKQYQLRGMATLEGYREQKAGSTLIRHAEELLRKKGADLLWCNARTSASGYYKKLGFSEQGEVYDTPPTGPHILMYKKLT | 2.223 s⁻¹ | 3100 µM | – |
| SEQ ID NO: 347: GAT polypeptide (protein, 20A12, GAT polypeptide) MIEVKPINAEDTYEIRHRILRPNQPLEACMYETDLLGGTFHLGGYYQGKLISIASFHNAEHSELEGQKQYQLRGMATLEGYREQKAGSTLIRHAEELLRKKGVDLLWCNARTSVSGYYKKLGFSEQGGIYDIPPIGPHILMYKKLA | 0.0467 s⁻¹ | 1100 µM | – |
| SEQ ID NO: 354: GAT polypeptide (protein, 2_8C3, GAT polypeptide) MIEVKPINAEDTYEIRHRILRPNQPLEACMYETDLLGGTFHLGGYYRDRLISIASFHQAEHSELEGQKQYQLRGMATLEGYREQKAGSTLIRHAEELLRKKGADLLWCNARTSASGYYEKLGFSEQGEVYDIPPIGPHILMYKKLT | 0.413 s⁻¹ | 1500 µM | – |
| SEQ ID NO: 352: GAT polypeptide (protein, 24C6, GAT polypeptide) MIEVKPINAEDTYEIRHRILRPNQPLEACMYETDLLGGTFHLGGYYRGKLISIASFHQAEHSELEGQKQYQLRGMATLEGYREQKAGSTLIRHAEELLRKKGADLLWCNARISVSGYYKKLGFSEQGGVYDIPPIGPHILMYKKLA | 0.045 s⁻¹ | 1300 µM | – |
| SEQ ID NO: 350: GAT polypeptide (protein, 23H11, GAT polypeptide) MIEVKPINAEDTYEIRHRILRPNQPLEACMYETDLLGGTFHLGGYYQGKLISIASFHKAEHSELEGQKQYQLRGMATLEGYREQKAGSTLIRHAEELLRKKGADLLWCNARTSASGYYEKLGFSEQGEVYDIPPIGPHILMYKKLA | 0.118 s⁻¹ | 2200 µM | – |
| SEQ ID NO: 351: GAT polypeptide (protein, 24C1, GAT polypeptide) MIEVKPINAEDTYEIRHRILRPNQPLEACKYETDLLGGTFHLGGYYRDRLISIASFHQAEHSELEGQKQYQLRGMATLEGYREQKAGSTLIRHAEELLRKKGADLLWCNARTSVSGYYKKLGFSEQGEVYDIPPIGPHILMYKKLT | 0.0283 s⁻¹ | 900 µM | – |
| SEQ ID NO: 265: GAT polypeptide (protein, 14_2A5, GAT polypeptide) MIEVKPINAEDTYEIRHRILRPNQPLEACKYETDLLGSTFHLGGYYRGKLISIASFNQAEHPELEGQKQYQLRGMATLEGYREQKAGSTLIRHAEELLRKKGADLLWCNARTSASGYYKKLGFSEQGEVYDTPPVGPHILMYKKLT | 4.68 s⁻¹ | 1600 µM | – |
| SEQ ID NO: 353: GAT polypeptide (protein, 24E7, GAT polypeptide) MIEVKPINAEDTYEIRHRILRPNQPLEACKYETDLLGGTFHLGGYYRGKLISIASFHNAEHSELEGQKQYQLRGMATLEGYREQKAGSTLIRHAEELLRKKGADLLWCNARTSASGYYEKLGFSEQGEVYDIPPIGPHILMYKKLA | 0.148 s⁻¹ | 900 µM | – |
